{"source": "paper PMC8361696", "about": "“Regulation of aquaporin‐4 expression in the central nervous system investigated using M23‐AQP4 null mouse” (Glia, 2021)", "proteins": {"B1": {"name": "M1-AQP4 (M23I) of M23-null mouse spinal cord (natural protein, mouse (endogenous in spinal cord), UniProt P55088 1-323, looked up)", "chain": "MSDGAAARRWGKCGHSCSRESIIVAFKGVWTQAFWKAVSAEFLATLIFVLLGVGSTINWGGSENPLPVDMVLISLCFGLSIATMVQCFGHISGGHINPAVTVAMVCTRKISIAKSVFYIIAQCLGAIIGAGILYLVTPPSVVGGLGVTTVHGNLTAGHGLLVELIITFQLVFTIFASCDSKRTDVTGSIALAIGFSVAIGHLFAINYTGASMNPARSFGPAVIMGNWANHWIYWVGPIMGAVLAGALYEYVFCPDVELKRRLKEAFSKAAQQTKGSYMEVEDNRSQVETEDLILKPGVVHVIDIDRGEEKKGKDSSGEVLSSV", "notes": "mouse aquaporin-4, M1-AQP4 isoform with the methionine codon at position 23 replaced by isoleucine, so no M23-AQP4 is made; The mouse model is described in de Bellis et al., 2020; also called M1M23I; AQP4 of M23-null mice; source: endogenous, M23-null (CRISPR/Cas9 M23I knock-in) mouse spinal cord, lysate in BN buffer (1% Triton X-100)"}}, "molecular_target": "the molecule itself", "assay": "native gel or EMSA; blue native PAGE (3-9% gradient) of 50 ug spinal cord lysate in BN buffer (1% Triton X-100, 12 mM NaCl, 500 mM 6-aminohexanoic acid, 20 mM Bis-Tris pH 7.0), immunoblot with anti-AQP4", "data": [{"protein": "B1", "values": [{"measurement": "stoichiometry N", "value": 4}]}]}
